Measured values as given in patent publication US20240374585A1, “EPITHELIAL SODIUM CHANNEL (ENAC) INHIBITOR CONJUGATES AND METHODS FOR USE THEREOF” (Lung Therapeutics, Inc., priority 2021, published 2024).
Read-outs that look alike come from different tables or passages of the source.

Experiment: Pharmacokinetics in blood, lung tissue and BALF of rats after intratracheal administration
Type: in vivo
Experimental: The pharmacokinetic profile of the conjugates of the present invention was determined in blood and lung tissue of rats.
Peptide Conj. 8 (SEQ ID NO: 45) and Conj. 9 (SEQ ID NO: 46) were formulated in 0.9% saline and intratracheally administered to 5-7 week-old rats (Sprague Dawley; male; 224-250 g). The pharmacokinetic profile of the peptide conjugates was then determined in blood and lung tissue.
For subgroup A, whole blood samples were collected from animals at 0.083, 0.25, and 0.5 hours following drug administration and for subgroup B, whole blood samples were collected at 0.75, 1, and 2 hours following drug administration for plasma analysis. Lung and bronchoalveolar lavage fluid (BALF) were collected at 0.5 and 2 hours following drug administration.
Whole blood was collected by tail nick at the predetermined time points and then maximal volume by cardiac stick for the final time point. The plasma was spun and collected within 30 minutes of collection. Upon euthanasia of the animal, a necropsy was performed and lungs harvested and weighed for analysis. After weighing the lungs, BALF was collected with 0.5 mL of 0.9% saline. The lungs were then reweighed after BALF collection. Lung, BALF, and plasma samples were frozen until analysis.
Frozen lung tissue was homogenized using a Precellys Evolution tabletop homogenizer (3×6500 rpm) with 4× dilution using normal rat plasma. 50 μL aliquots of homogenized lung tissue was then transferred into a 96 well plate for extraction with methanol. Harvested BALF was transferred in 25 μL aliquots into a 96 well plate and diluted with 25 μL of rat plasma before extraction with methanol. Plasma samples were transferred in 50 μL aliquots into a 96 well plate for extraction with methanol.
Standards were prepared by producing a working stock solution of Conj. 8 and Conj. 9 at 1 mg/mL. The Conj. 8 assay was performed using Conj. 9 as an internal standard at 1000 ng/mL. The Conj. 9 assay was performed using Conj. 8 as an internal standard at 1000 ng/mL.
Extraction was performed by direct precipitation with 3 volumes (150 μL) of methanol containing 1000 ng/ml of Conj. 8 and Conj. 9 as an internal standard. The plate was vortexed, followed by centrifugation (10 minutes at 4° C. and 2500 g) and dried down under heated nitrogen. Reconstitution was in 100 μL of initial mobile phase A (0.1% TFA: 0.1% FA in water) with 5% of mobile phase B (CAN, 0.1% TFA: 0.1% FA), before placing in an autosampler.
Plasma, lung, and BALF samples were analyzed for Conj. 8 and Conj. 9 by liquid chromatography with tandem mass spectrometry (LC/MS/MS) (API 4000; Kinetex® 2.6 μm C18 Column 50×2.1 mm; column temp.=50° C.; mobile phase A-0.1% TFA: 0.1% FA in water; mobile phase B-ACN, 0.1% TFA: 0.1% FA; flow rate-0.25 mL/min). Pharmacokinetic parameters were derived using sparse sampling noncompartmental analysis methods of Phoenix WinNonLin® version 8.0 (Certara USA, Inc.).
Tmax, the time after dosing at which the maximum concentration was observed; Cmax, the maximum observed concentration measured after dosing; AUClast, the area under the concentration versus time curve from the start of dose administration to the last observed quantifiable concentration calculated using the log/linear trapezoidal method; and MRTlast, mean residence time as defined by AUMClast/AUClast.

[1] = male, Sprague Dawley, bronchoalveolar lavage fluid (BALF), other: intratracheal; BALF; rat, IT, 5 mg/kg
[2] = male, Sprague Dawley, lung tissue, other: intratracheal; Lungs; rat, IT, 5 mg/kg
[3] = male, Sprague Dawley, lung, other: intratracheal; Lungs; rat, IT, 5 mg/kg
[4] = male, Sprague Dawley, other: intratracheal; BALF; rat, IT, 5 mg/kg
[5] = male, Sprague Dawley, other: intratracheal; Plasma; rat, IT, 5 mg/kg

SMILES	MRT last [1] [min]	Tmax (male, Sprague Dawley, inhaled or intranasal; Plasma; rat, IT, 5 mg/kg) [min]	MRT last [2] [min]	AUC(0-t) [3] [ng·h/mL]	Tmax [3] [min]	Cmax (male, Sprague Dawley, lung, other: intratracheal; Lungs; rat, IT, 5 mg/kg; read-out: Cmax) [ng/mL]	AUC(0-t) [4] [ng·h/mL]	Tmax [4] [min]	Cmax (male, Sprague Dawley, other: intratracheal; BALF; rat, IT, 5 mg/kg; read-out: Cmax) [ng/mL]	AUC(0-t) [5] [ng·h/mL]	MRT last [5] [min]	Cmax (male, Sprague Dawley, other: intratracheal; Plasma; rat, IT, 5 mg/kg; read-out: Cmax) [ng/mL]	plasma concentration (limit of quantitation) (all plasma samples; rat, IT, 5 mg/kg) [ng/mL]	level at 0.5 h (male, Sprague Dawley, bronchoalveolar lavage fluid (BALF); 0.5 h; rat, IT, 5 mg/kg; read-out: BALF concentration) [ng/mL]	level at 2 h (male, Sprague Dawley, bronchoalveolar lavage fluid (BALF); 2 h; rat, IT, 5 mg/kg; read-out: BALF concentration) [ng/mL]	Cmax (male, Sprague Dawley, rat, BALF, other: intratracheal, 5 mg/kg, BALF, IT, read-out: Cmax) [ng/mL]	Cmax (male, Sprague Dawley, rat, lung, other: intratracheal, 5 mg/kg, Lungs, IT, read-out: Cmax) [ng/mL]	Cmax (male, Sprague Dawley, rat, lung, other: intratracheal, 5 mg/kg, at both 0.5 h and 2 h, IT, read-out: approximate mean Cmax concentration in lung tissues) [ng/mL]
CC(=O)N[C@@H](Cc1cn(CCCCNC(N)=NC(=O)c2nc(Cl)c(N)nc2N)nn1)C(=O)NCCCCCC(=O)N[C@H](C(=O)N[C@@H](CO)C(=O)N[C@@H](CCCCN)C(=O)N[C@@H](CCCNC(=N)N)C(=O)N[C@@H](CCCNC(=N)N)C(N)=O)C(C)C [Conjugate 9, Ac-(AmilCC2-Pgy)-Ahx-VSKRR-NH2]	39.8	30	55.9	362	30	352	2380	30	4290	293	29.5	2290	–	–	–	–	–	–
CC(=O)N[C@@H](Cc1cn(CCCCNC(N)=NC(=O)c2nc(Cl)c(N)nc2N)nn1)C(=O)NCCCCCC(=O)N[C@@H](C)C(=O)N[C@@H](CO)C(=O)N[C@@H](Cc1c[nH]cn1)C(=O)N[C@@H](CC(C)C)C(=O)N[C@@H](CCCNC(=N)N)C(=O)N[C@@H](CCCCN)C(=O)N[C@@H](CC(C)C)C(=O)N[C@@H](CCCNC(=N)N)C(=O)N[C@@H](CCCCN)C(=O)N[C@@H](CCCNC(=N)N)C(=O)N[C@@H](CC(C)C)C(=O)N[C@@H](CC(C)C)C(N)=O [Conjugate 8]	75.6	–	69.6	22500	120	–	5910	120	–	–	–	–	< 25	2910	3990	3990	13200	~13000
